Here are results for 9 molecules from patent publication US20240261333A1, “NOVEL TARGETS FOR ENHANCING ANTI-TUMOR IMMUNITY” (THE BROAD INSTITUTE, INC., priority 2021, published 2024).

The assay deals with T1, B3GNT2 (Homo sapiens, UniProt Q9NY97).
T1 construct: The respective ORFs of candidate genes [CD274 (NM_014143), MCL1 (NM_021960), JUNB (NM_002229), and B3GNT2 (NM_006577)] were synthesized; expressed in transfected cells; host or cells: A375 melanoma cells (lentiviral ORF overexpression)
T1 sequence (Q9NY97 1-397): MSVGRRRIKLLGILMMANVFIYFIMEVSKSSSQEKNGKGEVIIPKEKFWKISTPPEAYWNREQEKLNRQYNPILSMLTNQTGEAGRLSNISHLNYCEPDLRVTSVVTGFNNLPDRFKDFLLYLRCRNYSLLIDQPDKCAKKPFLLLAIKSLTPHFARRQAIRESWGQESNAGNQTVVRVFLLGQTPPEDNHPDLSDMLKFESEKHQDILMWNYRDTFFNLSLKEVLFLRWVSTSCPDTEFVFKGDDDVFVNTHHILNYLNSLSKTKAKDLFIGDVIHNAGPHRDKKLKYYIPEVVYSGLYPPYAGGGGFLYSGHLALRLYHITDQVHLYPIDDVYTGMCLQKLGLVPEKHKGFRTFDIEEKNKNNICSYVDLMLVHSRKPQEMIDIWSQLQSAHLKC
As to the kind of experiment: Co-IP of FLAG-tagged B3GNT2 followed by mass spectrometry. On the set-up: C-term IgG / C-term flag: unit not given here. In kind it is cell-based. The following applies: mass spectrometry count, unit not given; for C-term flag / N-term FLAG: Co-IP with FLAG antibody; for C-term flag / C-term IgG: C-terminally FLAG-tagged B3GNT2; for N-term FLAG / N-term IgG: N-terminally FLAG-tagged B3GNT2; for C-term IgG / N-term IgG: Co-IP with IgG control antibody. A digest of the protocol: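 FLAG-tagged B3GNT2 immunoprecipitated from cell lysate (HEPES, 1% Triton X-100, 150 mM NaCl) with anti-FLAG versus […], overnight at 4° C, then captured on Protein A/G magnetic beads for 4 h. Two biological replicates per condition. Peptides fractionated and analyzed by nano-LC on an Orbitrap Elite in data-dependent mode.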

B1: HSPH1 (protein)
chain: SVVGLDVGSQSCYIAVARAGGIETIANEFSDRCTPSVISFGSKNRTIGVAAKNQQITHANNTVSNFKRFHGRAFNDPFIQKEKENLSYDLVPLKNGGVGIKVMYMGEEHLFSVEQITAMLLTKLKETAENSLKKPVTDCVISVPSFFTDAERRSVLDAAQIVGLNCLRLMNDMTAVALNYGIYKQDLPSLDEKPRIVVFVDMGHSAFQVSACAFNKGKLKVLGTAFDPFLGGKNFDEKLVEHFCAEFKTKYKLDAKSKIRALLRLYQECEKLKKLMSSNSTDLPLNIECFMNDKDVSGKMNRSQFEELCAELLQKIEVPLYSLLEQTHLKVEDVSAVEIVGGATRIPAVKERIAKFFGKDISTTLNADEAVARGCALQCAILSPAFKVREFSVTDAVPFPISLIWNHDSEDTEGVHEVFSRNHAAPFSKVLTFLRRGPFELEAFYSDPQGVPYPEAKIGRFVVQNVSAQKDGEKSRVKVKVRVNTHGIFTISTASMVEKVPTEENEMSSEADMECLNQRPPENPDTDANEKKVDQPPEAKKPKIKVVNVELPIEANLVWQLGKDLLNMYIETEGKMIMQDKLEKERNDAKNAVEEYVYEFRDKLCGPYEKFICEQDHQNFLRLLTETEDWLYEEGEDQAKQAYVDKLEELMKIGTPVKVRFQEAEERPKMFEELGQRLQHYAKIAADFRNKDEKYNHIDESEMKKVEKSVNEVMEWMNNVMNAQAKKSLDQDPVVRAQEIKTKIKELNNTCEPVVTQPKPKIESPKLERTPNGPNIDKKEEDLEDKNNFGAEPPHQNGECYPNEKNSVNMDLD
For B1, the C-term flag was determined as 7, the “N-term FLAG” value came to 8, the “C-term IgG” value stood at 0 and the “N-term IgG” value is on record as 0.

B2: CKAP4 (protein)
chain: MPSAKQRGSKGGHGAASPSEKGAHPSGGADDVAKKPPPAPQQPPPPPAPHPQQHPQQHPQNQAHGKGGHRGGGGGGGKSSSSSSASAAAAAAAASSSASCSRRLGRALNFLFYLALVAAAAFSGWCVHHVLEEVQQVRRSHQDFSRQREELGQGLQGVEQKVQSLQATFGTFESILRSSQHKQDLTEKAVKQGESEVSRISEVLQKLQNEILKDLSDGIHVVKDARERDFTSLENTVEERLTELTKSINDNIAIFTEVQKRSQKEINDMKAKVASLEESEGNKQDLKALKEAVKEIQTSAKSREWDMEALRSTLQTMESDIYTEVRELVSLKQEQQAFKEAADTERLALQALTEKLLRSEESVSRLPEEIRRLEEELRQLKSDSHGPKEDGGFRHSEAFEALQQKSQGLDSRLQHVEDGVLSMQVASARQTESLESLLSKSQEHEQRLAALQGRLEGLGSSEADQDGLASTVRSLGETQLVLYGDVEELKRSVGELPSTVESLQKVQEQVHTLLSQDQAQAARLPPQDFLDRLSSLDNLKASVSQVEADLKMLRTAVDSLVAYSVKIETNENNLESAKGLLDDLRNDLDRLFVKVEKIHEKV
Turning to B2, the C-term flag is on record as 14, the “N-term FLAG” value is listed as 2, the “C-term IgG” value amounted to 0 and the “N-term IgG” value was 0.

B3: PRR4 (protein)
chain: QSTDNDVNYEDFTFTIPDVEDSSQRPDQGPQRPPPEGLLPRPPGDSGNQDDGPQQRPPKPGGHHRHPPPPPFQNQQRPPRRGHRQLSLPRFPSVSLQEASSFFQRDRPARHPQEQPLW
Regarding B3, the C-term flag was 0, the “N-term FLAG” value was 2, the “C-term IgG” value is given as 0 and the “N-term IgG” value is 0.

B4: CANX (protein)
chain: HDGHDDDVIDIEDDLDDVIEEVEDSKPDTTAPPSSPKVTYKAPVPTGEVYFADSFDRGTLSGWILSKAKKDDTDDEIAKYDGKWEVEEMKESKLPGDKGLVLMSRAKHHAISAKLNKPFLFDTKPLIVQYEVNFQNGIECGGAYVKLLSKTPELNLDQFHDKTPYTIMFGPDKCGEDYKLHFIFRHKNPKTGIYEEKHAKRPDADLKTYFTDKKTHLYTLILNPDNSFEILVDQSVVNSGNLLNDMTPPVNPSREIEDPEDRKPEDWDERPKIPDPEAVKPDDWDEDAPAKIPDEEATKPEGWLDDEPEYVPDPDAEKPEDWDEDMDGEWEAPQIANPRCESAPGCGVWQRPVIDNPNYKGKWKPPMIDNPSYQGIWKPRKIPNPDFFEDLEPFRMTPFSAIGLELWSMTSDIFFDNFIICADRRIVDDWANDGWGLKKAADGAAEPGVVGQMIEAAEERPWLWVVYILTVALPVFLVILFCCSGKKQTSGMEYKKTDAPQPDVKEEEEEKEEEKDKGDEEEEGEEKLEEKQKSDAEEDGGTVSQEEEDRKPKAEEDEILNRSPRNRKPRRE
B4: the C-term flag is on record as 11, the “N-term FLAG” value came to 6, the “C-term IgG” value turned out to be 0 and the “N-term IgG” value came out at 0.

B5: SLC25A3 (protein)
chain: AVEEQYSCDYGSGRFFILCGLGGIISCGTTHTALVPLDLVKCRMQVDPQKYKGIFNGFSVTLKEDGVRGLAKGWAPTFLGYSMQGLCKFGFYEVFKVLYSNMLGEENTYLWRTSLYLAASASAEFFADIALAPMEAAKVRIQTQPGYANTLRDAAPKMYKEEGLKAFYKGVAPLWMRQIPYTMMKFACFERTVEALYKFVVPKPRSECSKPEQLVVTFVAGYIAGVFCAIVSHPADSVVSVLNKEKGSSASLVLKRLGFKGVWKGLFARIIMIGTLTALQWFIYDSVKVYFRLPRPPPPEMPESLKKKLGLTQ
B5: the C-term flag came to 9, the “N-term FLAG” value was determined as 4, the “C-term IgG” value worked out at 0 and the “N-term IgG” value was determined as 0.

B6: CASP14 (protein)
chain: MSNPRSLEEEKYDMSGARLALILCVTKAREGSEEDLDALEHMFRQLRFESTMKRDPTAEQFQEELEKFQQAIDSREDPVSCAFVVLMAHGREGFLKGEDGEMVKLENLFEALNNKNCQALRAKPKVYIIQACRGEQRDPGETVGGDEIVMVIKDSPQTIPTYTDALHVYSTVEGYIAYRHDQKGSCFIQTLVDVFTKRKGHILELLTEVTRRMAEAELVQEGKARKTNPEIQSTLRKRLYLQ
Take B6: the C-term flag worked out at 9, the “N-term FLAG” value was 8, the “C-term IgG” value is reported as 4 and the “N-term IgG” value is recorded as 3.

B7: SERPINE2 (protein)
chain: SHFNPLSLEELGSNTGIQVFNQIVKSRPHDNIVISPHGIASVLGMLQLGADGRTKKQLAMVMRYGVNGVGKILKKINKAIVSKKNKDIVTVANAVFVKNASEIEVPFVTRNKDVFQCEVRNVNFEDPASACDSINAWVKNETRDMIDNLLSPDLIDGVLTRLVLVNAVYFKGLWKSRFQPENTKKRTFVAADGKSYQVPMLAQLSVFRCGSTSAPNDLWYNFIELPYHGESISMLIALPTESSTPLSAIIPHISTKTIDSWMSIMVPKRVQVILPKFTAVAQTDLKEPLKVLGITDMFDSSKANFAKITTGSENLHVSHILQKAKIEVSEDGTKASAATTAILIARSSPPWFIVDRPFLFFIRHNPTGAVLFMGQINKP
For B7, the C-term flag is on record as 11, the “N-term FLAG” value is given as 4, the “C-term IgG” value is 0 and the “N-term IgG” value amounted to 0.

B8: SRSF7 (protein)
chain: MSRYGRYGGETKVYVGNLGTGAGKGELERAFSYYGPLRTVWIARNPPGFAFVEFEDPRDAEDAVRGLDGKVICGSRVRVELSTGMPRRSRFDRPPARRPFDPNDRCYECGEKGHYAYDCHRYSRRRRSRSRSRSHSRSRGRRYSRSRSRSRGRRSRSASPRRSRSISLRRSRSASLRRSRSGSIKGSRYFQSPSRSRSRSRSISRPRSSRSKSRSPSPKRSRSPSGSPRRSASPERMD
Consider B8, for which the C-term flag is 0, the “N-term FLAG” value worked out at 2, the “C-term IgG” value was 0 and the “N-term IgG” value was determined as 0.

B9: UQCRC2 (protein)
chain: SLKVAPKVKATAAPAGAPPQPQDLEFTKLPNGLVIASLENYSPVSRIGLFIKAGSRYEDFSNLGTTHLLRLTSSLTTKGASSFKITRGIEAVGGKLSVTATRENMAYTVECLRGDVDILMEFLLNVTTAPEFRRWEVADLQPQLKIDKAVAFQNPQTHVIENLHAAAYRNALANPLYCPDYRIGKVTSEELHYFVQNHFTSARMALIGLGVSHPVLKQVAEQFLNMRGGLGLSGAKANYRGGEIREQNGDSLVHAAFVAESAVAGSAEANAFSVLQHVLGAGPHVKRGSNTTSHLHQAVAKATQQPFDVSAFNASYSDSGLFGIYTISQATAAGDVIKAAYNQVKTIAQGNLSNTDVQAAKNKLKAGYLMSVESSECFLEEVGSQALVAGSYMPPSTVLQQIDSVANADIINAAKKFVSGQKSMAASGNLGHTPFVDEL
As to B9, the C-term flag was found to be 4, the “N-term FLAG” value was determined as 13, the “C-term IgG” value is 0 and the “N-term IgG” value is recorded as 0.
